Experimental data published in article PMC8944080, “Production of indole by Corynebacterium glutamicum microbial cell factories for flavor and fragrance applications” (Microbial Cell Factories, 2022).

Key:
[1] = test system: N[C@@H](Cc1c[nH]c2ccccc12)C(=O)O; test: purified protein; conditions: 100 mM KPi pH 7.8, 30 °C, 0.05 mM pyridoxal phosphate, 1 mM DTT
[2] = test system: T1, N[C@@H](Cc1c[nH]c2ccccc12)C(=O)O; test: purified protein; type: biochemical, Proteus vulgaris; conditions: 100 mM KPi pH 7.8, 30 °C, 0.05 mM pyridoxal phosphate, 1 mM DTT
T1 construct: full length, N-terminal 6xHis tag, codon-optimised gene, pACYCDuet-1, E. coli BL21(DE3), Ni-NTA; TNAs are homotetramers

Row | Substance | Km [1] [µM] | kcat [1] [s⁻¹] | kcat/Km [1] [M⁻¹ s⁻¹] | Km [2] [µM] | kcat [2] [s⁻¹] | kcat/Km [2] [M⁻¹ s⁻¹]
1 | EcTNA (Escherichia coli K-12) | 140 ± 10 | 1.65 | 11800 | – | – | –
2 | PvTNA (Proteus vulgaris) | – | – | – | 30 ± 3 | 0.78 ± 0.02 | 26000 ± 5800
